The values that follow come from the RNAGym collection of RNA variant scans (doi:10.7554/elife.80360).

The labels stand for the following.
B1: HDV Ribozyme (parent)
chain: GGCCGGCAUGGUCCCAGCCUCCUCGCUGGCGCCGGCUGGGCAACAUUCCGAGGGGACCGUCCCCUCGGUAAUGGCGAAUGGGACCCA

The variants in this data set derive from B1. Put plainly: self-cleavage, relative activity (ratio to wild type); higher = more cleavage; co-transcriptional.
For C7G A70U, the self-cleavage was determined as 0.475. Then C7A C13A, with 0.185; and C7A G35U, with 0.0906; and C7A G35A, with 0.0841. Then C7A C62A, with 0.618. With C7A C62G, the self-cleavage was found to be 0.0665. Regarding C7A G25A, the self-cleavage was found to be 0.175. As for C7A G25U, the self-cleavage worked out at 0.102. Then C7A G81A, with 0.0302.

In the case of C7G A56C, the self-cleavage came out at 0.391. The value for C7G A56G was 0.208; that for C7A U20G was 0.312.

In the case of C7A U20C, the self-cleavage amounted to 0. Take C7A C15A: the self-cleavage is 0.0415. Then C7A A42G, with 0.0831; and C7A A42U, with 0.108; and C7A G34U, with 0. As to C7A G34A, the self-cleavage turned out to be 0.175. Then C7A G34C, with 0. Take G6U U60G: the self-cleavage is 0.346. The value for G6U U60A was 0.571; that for C7A G52C was 0.482. Consider C7A G67U, for which the self-cleavage was found to be 0.378.

For C7A C19U, the self-cleavage turned out to be 0.0906. G6U U37A: the self-cleavage amounted to 0.0437. C7A G17U: the self-cleavage was determined as 0.162. Then C7A G17A, with 0.0475. Turning to C7A G17C, the self-cleavage was determined as 0.

On to C7A C30A, for which the self-cleavage was 0.0282. Then C7A C30U, with 0.0396; and C7A C30G, with 0.0791; and C7A C14U, with 0.447. The value for C7A C14G was 0. Then C7A A87C, with 0.514; and C7A C24A, with 0.125; and C7A C24U, with 0.306. With C7A G38U, the self-cleavage was 0.0346. As for C7A G38A, the self-cleavage was 0.0639. Then C7A G76C, with 0.988; and C7A U46C, with 0.453; and C7A U12A, with 0.0978. Then C7A U12C, with 0.172. Turning to C7A A45U, the self-cleavage is 0.332. The value for C7A A70U was 0.356; that for C7A A70G was 0.426. Then C7A A70C, with 0.346; and C7A U37G, with 0.246. Consider C7A C75U, for which the self-cleavage amounted to 0.131. Then C7A C75G, with 0.225; and C7A C75A, with 0.0923. Consider C7A A71C, for which the self-cleavage stood at 0.298. Then C7A A71U, with 0.462; and C7A A71G, with 0.584. The value for C7A C86U was 0.831. The value for C7A C86G was 0.571; that for C7A C86A was 0.804; that for C7A was 0.644. For the variant C7G, the self-cleavage was determined as 0.315. Then C7A U79C, with 0.128; and C7A C57U, with 0.702. As to C7A C57A, the self-cleavage was 0.597.

Regarding C7A U60A, the self-cleavage turned out to be 0.665. The value for C7A U60C was 0.712; that for C7A U60G was 0.356.

C7A U65C: the self-cleavage is 0.522. Then C7A C41G, with 0; and C7A C41A, with 0.342; and G6U U69C, with 0.655. As for G6U U69G, the self-cleavage was found to be 0.375.

G6U U69A: the self-cleavage came to 0.415.

For G6U U12C, the self-cleavage is 0.0573. The value for G6U U12A was 0; that for G6U U12G was 0; that for C7A G80C was 0.192. Then G6U U65G, with 0.453; and C7A A56G, with 0.399. The value for C7A A56C was 0.831; that for G6U U47A was 0.482. On to G6U U47C, for which the self-cleavage worked out at 0.467. Consider C7G A78C, for which the self-cleavage came to 0.175. Then C7G A78G, with 0.0831; and C7G A78U, with 0.0791; and C7A C85U, with 0.807. The value for C7A C85A was 0.453.

Regarding C7A G54A, the self-cleavage was determined as 0.504. The value for C7A G54U was 0.609; that for C7G A16U was 0.0692. As for C7G A16C, the self-cleavage came out at 0.151.

Take C7G A16G: the self-cleavage was 0.0978.

Turning to C7A A16U, the self-cleavage is 0.499. Then C7A A16C, with 0.277; and C7A A16G, with 0.249. Then C7A G31C, with 1.03; and C7A G31U, with 1.07. The value for C7A G31A was 0.87; that for C7A U69C was 0.617. Consider C7G A51C, for which the self-cleavage is 0.437. C7G A51U: the self-cleavage stood at 0.107. In the case of C7G A43G, the self-cleavage turned out to be 0. C7G A43C: the self-cleavage came out at 0.111.

As for C7A G74C, the self-cleavage was 0.131. Then C7A A43G, with 0; and C7A C63G, with 0.35. Then C7A C63A, with 0.489; and C7A C36U, with 0.203; and C7A C36A, with 0.0923. For C7G A77C, the self-cleavage was determined as 0.0692. On to C7A G40C, for which the self-cleavage came to 0.102.

In the case of C7A C44A, the self-cleavage was found to be 0.0978.

On to C7A U23A, for which the self-cleavage is 0.739. Then C7A U23C, with 0.935; and C7A G53C, with 0.38; and C7A U72A, with 0.308. Then C7A U72C, with 0.196; and C7A U72G, with 0. Then C7A C21U, with 0; and C7A C21A, with 0.0791. C7A C21G: the self-cleavage stood at 0. In the case of C7A C49A, the self-cleavage is 0.538. Then C7A U9C, with 0.604; and C7A C58G, with 0.705. The value for C7A C58U was 0.731. The value for C7A A51C was 0.609; that for C7A A51G was 0.635.

G6U U79C: the self-cleavage amounted to 0.123. Turning to G6U U79A, the self-cleavage was 0.246.

As for C7A G73A, the self-cleavage came out at 0.106. Then C7A G50A, with 0.527. Then C7A C61U, with 0.441. The value for C7A A8U was 0.609.

C7A A8C: the self-cleavage was found to be 0.65. Take C7A A8G: the self-cleavage worked out at 0.831.

For C7A G82A, the self-cleavage turned out to be 0.0875. Then C7A G82C, with 0.0811. The value for C7A G82U was 0.256. Turning to C7A A83C, the self-cleavage was 0.0923. Consider G6U U46C, for which the self-cleavage turned out to be 0.133. The value for G6U U46A was 0.0755. The value for G6U U46G was 0.123; that for C7A G68C was 0.341; that for C7A A78G was 0.0875. Take C7A A78C: the self-cleavage amounted to 0.0554. G6U U27A: the self-cleavage was determined as 0.453. The value for C7G A45C was 0. Then C7A C22G, with 0.0791; and C7A U27A, with 0.609.

Regarding C7A U27G, the self-cleavage came to 0.447.

For the variant C7A G39C, the self-cleavage turned out to be 0.

As to G6U U9C, the self-cleavage was found to be 0.465. The value for G6U U9A was 0.623. Regarding C7A G55U, the self-cleavage was determined as 0.4. With C7A G55C, the self-cleavage turned out to be 0.778. The value for C7A C84A was 0.519. Then C7G A71U, with 0.0639; and C7A C18G, with 0; and C7A G10A, with 0.0831. Then C7A G28U, with 0.0361; and C7G A42C, with 0.208; and C7A U47G, with 0.317. As to C7A U47C, the self-cleavage stood at 0.277. Then C7A G29U, with 0.0875; and C7A G29C, with 0.0707. Then C7G A83C, with 0.175; and C7A C48A, with 0.604; and C7A C66G, with 0.243. G6U U23A: the self-cleavage came to 0.466. Then G6U U23C, with 0.312.
